Patent US20210032299A1 (Eli Lilly, published 2021)
Starred links: 1 amine or outer side, 2 acyl side, 3 side chain; linkers in the order of their positions; H or OH if unused. Non-standard residues stand in square brackets, D forms with d. Groups on a side chain read outwards from the residue. No end group written: not given here. *: point of attachment. C20 diacid = O=C(O)CCCCCCCCCCCCCCCCCCC(=O)*; C18 diacid = O=C(O)CCCCCCCCCCCCCCCCC(=O)*; γGlu = O=C(O)[C@H](CCC(=O)[*:2])N[*:1]; 4Pal = N[C@@H](Cc1ccncc1)C(=O)O; AEEA = NCCOCCOCC(=O)O; Aib = CC(C)(N)C(=O)O

T1: human glucose-dependent insulinotropic peptide receptor (human, UniProt P48546 22-466)
T1 sequence (looked up): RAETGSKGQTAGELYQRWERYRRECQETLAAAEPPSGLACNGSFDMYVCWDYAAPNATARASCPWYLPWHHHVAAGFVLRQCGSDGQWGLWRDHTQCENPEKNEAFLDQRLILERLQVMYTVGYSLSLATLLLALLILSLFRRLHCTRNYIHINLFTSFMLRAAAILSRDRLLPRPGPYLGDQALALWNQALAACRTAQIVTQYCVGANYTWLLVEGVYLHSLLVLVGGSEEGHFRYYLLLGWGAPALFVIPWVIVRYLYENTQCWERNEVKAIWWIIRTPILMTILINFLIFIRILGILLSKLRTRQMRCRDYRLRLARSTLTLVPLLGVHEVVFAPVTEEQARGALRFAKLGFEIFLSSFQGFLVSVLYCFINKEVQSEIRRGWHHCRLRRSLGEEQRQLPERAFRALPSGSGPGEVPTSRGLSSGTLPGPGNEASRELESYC


What was measured:
Assay in all cases: cell-based or functional assay
[1] = target: T1, human glucose-dependent insulinotropic …
human glucagon receptor = human glucagon receptor (human, UniProt P47871 26-477)
human glucagon receptor, sequence (P47871 26-477): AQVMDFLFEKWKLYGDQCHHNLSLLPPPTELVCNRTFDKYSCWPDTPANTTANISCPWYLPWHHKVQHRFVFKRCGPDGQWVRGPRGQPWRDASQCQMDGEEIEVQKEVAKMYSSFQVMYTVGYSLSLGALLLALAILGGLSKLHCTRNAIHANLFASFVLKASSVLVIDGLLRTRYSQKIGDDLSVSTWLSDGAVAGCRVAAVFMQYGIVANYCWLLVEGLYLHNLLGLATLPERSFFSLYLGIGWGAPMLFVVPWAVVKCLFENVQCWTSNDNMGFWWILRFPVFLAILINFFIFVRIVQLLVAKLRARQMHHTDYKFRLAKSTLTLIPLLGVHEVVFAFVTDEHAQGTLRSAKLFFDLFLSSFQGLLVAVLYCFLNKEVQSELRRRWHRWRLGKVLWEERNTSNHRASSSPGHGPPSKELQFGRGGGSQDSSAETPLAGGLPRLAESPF

human GLP-1 receptor = human GLP-1 receptor (human, UniProt P43220 24-463)

Binder	hGIPR cAMP Rel EC50 [1] [nM]	hGcgR cAMP Rel EC50 (human glucagon receptor) [nM]	hGLP1R cAMP Rel EC50 (human GLP-1 receptor) [nM]
Y[dA]EGTFISDYSILLDKK([AEEA-AEEA-γGlu-C20 diacid])HQQEFVNWLLAQGPSSGAPPPS-NH2 (N-terminus assumed; SMILES CC[C@H](C)[C@H](NC(=O)[C@H](CO)NC(=O)[C@H](Cc1ccc(O)cc1)NC(=O)[C@H](CC(=O)O)NC(=O)[C@H](CO)NC(=O)[C@@H](NC(=O)[C@H](Cc1ccccc1)NC(=O)[C@@H](NC(=O)CNC(=O)[C@H](CCC(=O)O)NC(=O)[C@@H](C)NC(=O)[C@@H](N)Cc1ccc(O)cc1)[C@@H](C)O)[C@@H](C)CC)C(=O)N[C@@H](CC(C)C)C(=O)N[C@@H](CC(C)C)C(=O)N[C@@H](CC(=O)O)C(=O)N[C@@H](CCCCN)C(=O)N[C@@H](CCCCNC(=O)COCCOCCNC(=O)COCCOCCNC(=O)CC[C@H](NC(=O)CCCCCCCCCCCCCCCCCCC(=O)O)C(=O)O)C(=O)N[C@@H](Cc1c[nH]cn1)C(=O)N[C@@H](CCC(N)=O)C(=O)N[C@@H](CCC(N)=O)C(=O)N[C@@H](CCC(=O)O)C(=O)N[C@@H](Cc1ccccc1)C(=O)N[C@H](C(=O)N[C@@H](CC(N)=O)C(=O)N[C@@H](Cc1c[nH]c2ccccc12)C(=O)N[C@@H](CC(C)C)C(=O)N[C@@H](CC(C)C)C(=O)N[C@@H](C)C(=O)N[C@@H](CCC(N)=O)C(=O)NCC(=O)N1CCC[C@H]1C(=O)N[C@@H](CO)C(=O)N[C@@H](CO)C(=O)NCC(=O)N[C@@H](C)C(=O)N1CCC[C@H]1C(=O)N1CCC[C@H]1C(=O)N1CCC[C@H]1C(=O)N[C@@H](CO)C(N)=O)C(C)C) [Example 13]	0.129	> 5000	> 100
Y[dA]EGTFISDYSILLDKK([AEEA-AEEA-γGlu-C20 diacid])HQQDFVEWLLAQGPSSGAPPPS-NH2 (N-terminus assumed; SMILES CC[C@H](C)[C@H](NC(=O)[C@H](CO)NC(=O)[C@H](Cc1ccc(O)cc1)NC(=O)[C@H](CC(=O)O)NC(=O)[C@H](CO)NC(=O)[C@@H](NC(=O)[C@H](Cc1ccccc1)NC(=O)[C@@H](NC(=O)CNC(=O)[C@H](CCC(=O)O)NC(=O)[C@@H](C)NC(=O)[C@@H](N)Cc1ccc(O)cc1)[C@@H](C)O)[C@@H](C)CC)C(=O)N[C@@H](CC(C)C)C(=O)N[C@@H](CC(C)C)C(=O)N[C@@H](CC(=O)O)C(=O)N[C@@H](CCCCN)C(=O)N[C@@H](CCCCNC(=O)COCCOCCNC(=O)COCCOCCNC(=O)CC[C@H](NC(=O)CCCCCCCCCCCCCCCCCCC(=O)O)C(=O)O)C(=O)N[C@@H](Cc1c[nH]cn1)C(=O)N[C@@H](CCC(N)=O)C(=O)N[C@@H](CCC(N)=O)C(=O)N[C@@H](CC(=O)O)C(=O)N[C@@H](Cc1ccccc1)C(=O)N[C@H](C(=O)N[C@@H](CCC(=O)O)C(=O)N[C@@H](Cc1c[nH]c2ccccc12)C(=O)N[C@@H](CC(C)C)C(=O)N[C@@H](CC(C)C)C(=O)N[C@@H](C)C(=O)N[C@@H](CCC(N)=O)C(=O)NCC(=O)N1CCC[C@H]1C(=O)N[C@@H](CO)C(=O)N[C@@H](CO)C(=O)NCC(=O)N[C@@H](C)C(=O)N1CCC[C@H]1C(=O)N1CCC[C@H]1C(=O)N1CCC[C@H]1C(=O)N[C@@H](CO)C(N)=O)C(C)C) [Example 14]	0.34	> 5000	> 100
Y[dA]EGTFISDYSILLDKK([AEEA-AEEA-γGlu-C20 diacid])HQQDFVNYLLAQGPSSGAPPPS-NH2 (N-terminus assumed; SMILES CC[C@H](C)[C@H](NC(=O)[C@H](CO)NC(=O)[C@H](Cc1ccc(O)cc1)NC(=O)[C@H](CC(=O)O)NC(=O)[C@H](CO)NC(=O)[C@@H](NC(=O)[C@H](Cc1ccccc1)NC(=O)[C@@H](NC(=O)CNC(=O)[C@H](CCC(=O)O)NC(=O)[C@@H](C)NC(=O)[C@@H](N)Cc1ccc(O)cc1)[C@@H](C)O)[C@@H](C)CC)C(=O)N[C@@H](CC(C)C)C(=O)N[C@@H](CC(C)C)C(=O)N[C@@H](CC(=O)O)C(=O)N[C@@H](CCCCN)C(=O)N[C@@H](CCCCNC(=O)COCCOCCNC(=O)COCCOCCNC(=O)CC[C@H](NC(=O)CCCCCCCCCCCCCCCCCCC(=O)O)C(=O)O)C(=O)N[C@@H](Cc1c[nH]cn1)C(=O)N[C@@H](CCC(N)=O)C(=O)N[C@@H](CCC(N)=O)C(=O)N[C@@H](CC(=O)O)C(=O)N[C@@H](Cc1ccccc1)C(=O)N[C@H](C(=O)N[C@@H](CC(N)=O)C(=O)N[C@@H](Cc1ccc(O)cc1)C(=O)N[C@@H](CC(C)C)C(=O)N[C@@H](CC(C)C)C(=O)N[C@@H](C)C(=O)N[C@@H](CCC(N)=O)C(=O)NCC(=O)N1CCC[C@H]1C(=O)N[C@@H](CO)C(=O)N[C@@H](CO)C(=O)NCC(=O)N[C@@H](C)C(=O)N1CCC[C@H]1C(=O)N1CCC[C@H]1C(=O)N1CCC[C@H]1C(=O)N[C@@H](CO)C(N)=O)C(C)C) [Example 15]	0.282	> 5000	> 100
YXEGTFISDYSILLDKKAQXDFVEWLLAQGPSSGAPPPS (D-Ala2; K17((2-[2-(2-Amino-ethoxy)-ethoxy]-acetyl)2-(γ-Glu)-CO-(CH2)16-CO2H); Aib20; C-terminal amide) [Example 16]	0.00937	> 5000	> 5000
YXEGTFISDYSILLDKKAQXDFVNWLLEQGPSSGAPPPS (D-Ala2; K17((2-[2-(2-Amino-ethoxy)-ethoxy]-acetyl)2-(γ-Glu)-CO-(CH2)16-CO2H); Aib20; C-terminal amide) [Example 17]	0.0135	> 5000	> 5000
YXEGTFISDYSILLDKKAQXDFVNXLLAQGPSSGAPPPS (D-Ala2; K17((2-[2-(2-Amino-ethoxy)-ethoxy]-acetyl)2-(γ-Glu)-CO-(CH2)16-CO2H); Aib20; 4-Pal25; C-terminal amide) [Example 18]	0.00656	> 5000	> 5000
YXEGTFISDYSILLDKKAQXDFVNWLLAGGPSSGAPPPS (D-Ala2; K17((2-[2-(2-Amino-ethoxy)-ethoxy]-acetyl)2-(γ-Glu)-CO-(CH2)16-CO2H); Aib20; C-terminal amide) [Example 19]	0.00992	> 5000	> 5000
YXEGTFISDYSILLDKKAQXEFVNWLLAQGPSSGAPPPS (D-Ala2; K17((2-[2-(2-Amino-ethoxy)-ethoxy]-acetyl)2-(γ-Glu)-CO-(CH2)16-CO2H); Aib20; C-terminal amide) [Example 20]	0.00933	> 5000	> 5000
Y[Aib]EGTFISDYSIALDKK([AEEA-AEEA-γGlu-C18 diacid])HQ[Aib]DFVE[4Pal]LLAGGPSSGAPPPS-NH2 (N-terminus assumed; SMILES CC[C@H](C)[C@H](NC(=O)[C@H](CO)NC(=O)[C@H](Cc1ccc(O)cc1)NC(=O)[C@H](CC(=O)O)NC(=O)[C@H](CO)NC(=O)[C@@H](NC(=O)[C@H](Cc1ccccc1)NC(=O)[C@@H](NC(=O)CNC(=O)[C@H](CCC(=O)O)NC(=O)C(C)(C)NC(=O)[C@@H](N)Cc1ccc(O)cc1)[C@@H](C)O)[C@@H](C)CC)C(=O)N[C@@H](C)C(=O)N[C@@H](CC(C)C)C(=O)N[C@@H](CC(=O)O)C(=O)N[C@@H](CCCCN)C(=O)N[C@@H](CCCCNC(=O)COCCOCCNC(=O)COCCOCCNC(=O)CC[C@H](NC(=O)CCCCCCCCCCCCCCCCC(=O)O)C(=O)O)C(=O)N[C@@H](Cc1c[nH]cn1)C(=O)N[C@@H](CCC(N)=O)C(=O)NC(C)(C)C(=O)N[C@@H](CC(=O)O)C(=O)N[C@@H](Cc1ccccc1)C(=O)N[C@H](C(=O)N[C@@H](CCC(=O)O)C(=O)N[C@@H](Cc1ccncc1)C(=O)N[C@@H](CC(C)C)C(=O)N[C@@H](CC(C)C)C(=O)N[C@@H](C)C(=O)NCC(=O)NCC(=O)N1CCC[C@H]1C(=O)N[C@@H](CO)C(=O)N[C@@H](CO)C(=O)NCC(=O)N[C@@H](C)C(=O)N1CCC[C@H]1C(=O)N1CCC[C@H]1C(=O)N1CCC[C@H]1C(=O)N[C@@H](CO)C(N)=O)C(C)C) [Example 21]	0.291	> 5000	> 5000
Y[Aib]EGTFISDYSILLDKK([AEEA-AEEA-γGlu-C18 diacid])HQ[Aib]DFVE[4Pal]LLAGGPSSGAPPPS-NH2 (N-terminus assumed; SMILES CC[C@H](C)[C@H](NC(=O)[C@H](CO)NC(=O)[C@H](Cc1ccc(O)cc1)NC(=O)[C@H](CC(=O)O)NC(=O)[C@H](CO)NC(=O)[C@@H](NC(=O)[C@H](Cc1ccccc1)NC(=O)[C@@H](NC(=O)CNC(=O)[C@H](CCC(=O)O)NC(=O)C(C)(C)NC(=O)[C@@H](N)Cc1ccc(O)cc1)[C@@H](C)O)[C@@H](C)CC)C(=O)N[C@@H](CC(C)C)C(=O)N[C@@H](CC(C)C)C(=O)N[C@@H](CC(=O)O)C(=O)N[C@@H](CCCCN)C(=O)N[C@@H](CCCCNC(=O)COCCOCCNC(=O)COCCOCCNC(=O)CC[C@H](NC(=O)CCCCCCCCCCCCCCCCC(=O)O)C(=O)O)C(=O)N[C@@H](Cc1c[nH]cn1)C(=O)N[C@@H](CCC(N)=O)C(=O)NC(C)(C)C(=O)N[C@@H](CC(=O)O)C(=O)N[C@@H](Cc1ccccc1)C(=O)N[C@H](C(=O)N[C@@H](CCC(=O)O)C(=O)N[C@@H](Cc1ccncc1)C(=O)N[C@@H](CC(C)C)C(=O)N[C@@H](CC(C)C)C(=O)N[C@@H](C)C(=O)NCC(=O)NCC(=O)N1CCC[C@H]1C(=O)N[C@@H](CO)C(=O)N[C@@H](CO)C(=O)NCC(=O)N[C@@H](C)C(=O)N1CCC[C@H]1C(=O)N1CCC[C@H]1C(=O)N1CCC[C@H]1C(=O)N[C@@H](CO)C(N)=O)C(C)C) [Example 22]	0.0345	1250	> 5000
